B1: wt-MGLL.1-303: wild-type human MGLL isoform 2 amino acids 1-303 with N-terminal His tag and TEV site, SEQ ID NO: 3 (protein)
chain: MVDHHHHHHENLYFQGMPEESSPRRTPQSIPYQDLPHLVNADGQYLFCRYWKPTGTPKALIFVSHGAGEHSGRYEELARMLMGLDLLVFAHDHVGHGQSEGERMVVSDFHVFVRDVLQHVDSMQKDYPGLPVFLLGHSMGGAIAILTAAERPGHFAGMVLISPLVLANPESATTFKVLAAKVLNLVLPNLSLGPIDSSVLSRNKTEVDIYNSDPLICRAGLKVCFGIQLLNAVSRVERALPKLTVPFLLLQGSADRLCDSKGAYLLMELAKSQDKTLKIYEGAYHVLHKELPEVTNSVFHEINMWVSQRTATAGTASPP
modifications: N-terminal His tag and TEV site; Human
B2: mut-MGLL 1-303, L169S, L176S, K36A: engineered human MGLL 1-303 L169S, L176S, K36A; SEQ ID NO: 6, SEQ ID NO: 7 after TEV cleavage (protein)
chain: MVDHHHHHHENLYFQGMPEESSPRRTPQSIPYQDLPHLVNADGQYLFCRYWAPTGTPKALIFVSHGAGEHSGRYEELARMLMGLDLLVFAHDHVGHGQSEGERMVVSDFHVFVRDVLQHVDSMQKDYPGLPVFLLGHSMGGAIAILTAAERPGHFAGMVLISPLVLANPESATTFKVLAAKVLNSVLPNLSSGPIDSSVLSRNKTEVDIYNSDPLICRAGLKVCFGIQLLNAVSRVERALPKLTVPFLLLQGSADRLCDSKGAYLLMELAKSQDKTLKIYEGAYHVLHKELPEVTNSVFHEINMWVSQRTATAGTASPP
modifications: His tag and TEV site; SEQ ID 7 after TEV cleavage; Human
B3: mut-MGLL. 1-303, L169S, L176S, K160A: engineered form of human MGLL, cap plus surface mutations (protein)
chain: MVDHHHHHHENLYFQGMPEESSPRRTPQSIPYQDLPHLVNADGQYLFCRYWKPTGTPKALIFVSHGAGEHSGRYEELARMLMGLDLLVFAHDHVGHGQSEGERMVVSDFHVFVRDVLQHVDSMQKDYPGLPVFLLGHSMGGAIAILTAAERPGHFAGMVLISPLVLANPESATTFAVLAAKVLNSVLPNLSSGPIDSSVLSRNKTEVDIYNSDPLICRAGLKVCFGIQLLNAVSRVERALPKLTVPFLLLQGSADRLCDSKGAYLLMELAKSQDKTLKIYEGAYHVLHKELPEVTNSVFHEINMWVSQRTATAGTASPP
B4: mut-MGLL 1-303, L171Q, L174Q: engineered form of human MGLL, cap mutations (protein)
chain: MVDHHHHHHENLYFQGMPEESSPRRTPQSIPYQDLPHLVNADGQYLFCRYWKPTGTPKALIFVSHGAGEHSGRYEELARMLMGLDLLVFAHDHVGHGQSEGERMVVSDFHVFVRDVLQHVDSMQKDYPGLPVFLLGHSMGGAIAILTAAERPGHFAGMVLISPLVLANPESATTFKVLAAKVLNLVQPNQSLGPIDSSVLSRNKTEVDIYNSDPLICRAGLKVCFGIQLLNAVSRVERALPKLTVPFLLLQGSADRLCDSKGAYLLMELAKSQDKTLKIYEGAYHVLHKELPEVTNSVFHEINMWVSQRTATAGTASPP
B5: mut-MGLL. 1-303, L169S, L176S, K165A: engineered form of human MGLL, cap plus surface mutations (protein)
chain: MVDHHHHHHENLYFQGMPEESSPRRTPQSIPYQDLPHLVNADGQYLFCRYWKPTGTPKALIFVSHGAGEHSGRYEELARMLMGLDLLVFAHDHVGHGQSEGERMVVSDFHVFVRDVLQHVDSMQKDYPGLPVFLLGHSMGGAIAILTAAERPGHFAGMVLISPLVLANPESATTFKVLAAAVLNSVLPNLSSGPIDSSVLSRNKTEVDIYNSDPLICRAGLKVCFGIQLLNAVSRVERALPKLTVPFLLLQGSADRLCDSKGAYLLMELAKSQDKTLKIYEGAYHVLHKELPEVTNSVFHEINMWVSQRTATAGTASPP
B6: mut-MGLL 1-303, L169S, L176S, K226A: engineered form of human MGLL, cap plus surface mutations (protein)
chain: MVDHHHHHHENLYFQGMPEESSPRRTPQSIPYQDLPHLVNADGQYLFCRYWKPTGTPKALIFVSHGAGEHSGRYEELARMLMGLDLLVFAHDHVGHGQSEGERMVVSDFHVFVRDVLQHVDSMQKDYPGLPVFLLGHSMGGAIAILTAAERPGHFAGMVLISPLVLANPESATTFKVLAAKVLNSVLPNLSSGPIDSSVLSRNKTEVDIYNSDPLICRAGLKVCFGIQLLNAVSRVERALPALTVPFLLLQGSADRLCDSKGAYLLMELAKSQDKTLKIYEGAYHVLHKELPEVTNSVFHEINMWVSQRTATAGTASPP
B7: mut-MGLL 1-303, L169S, L176S, K36A, K226A: engineered form of human MGLL, cap plus surface mutations (protein)
chain: MVDHHHHHHENLYFQGMPEESSPRRTPQSIPYQDLPHLVNADGQYLFCRYWAPTGTPKALIFVSHGAGEHSGRYEELARMLMGLDLLVFAHDHVGHGQSEGERMVVSDFHVFVRDVLQHVDSMQKDYPGLPVFLLGHSMGGAIAILTAAERPGHFAGMVLISPLVLANPESATTFKVLAAKVLNSVLPNLSSGPIDSSVLSRNKTEVDIYNSDPLICRAGLKVCFGIQLLNAVSRVERALPALTVPFLLLQGSADRLCDSKGAYLLMELAKSQDKTLKIYEGAYHVLHKELPEVTNSVFHEINMWVSQRTATAGTASPP

Assays:
[1] = system: MGLL; assay: Kinetic analysis: hydrolysis of 4-methyl coumarin butyrate (4MC-B) by MGLL constructs; type: biochemical, human; details: substrate 4MC-B; 4-5 nM MGLL, 20 mM Pipes pH 7, 150 mM NaCl, 37° C.; average of 2 or 4 separate assays
Source text: A small fluorescent substrate, 4-methyl coumarin butyrate (4MC-B) was used to compare the activity of the engineered mutants to the activity of wt-MGLL (hMGLL 1-303) (SEQ ID NO: 3). The catalytic efficiency (kcat/KM) for the hydrolysis of the 4MC-B was similar for wt-MGLL (hMGLL 1-303) (SEQ ID NO: 3) and all MGLL mutants tested (Table 2). A larger more aliphatic fluorescent substrate, Coumarin Arachidonate (C-A), structurally more closely related to the MGLL natural substrate, 2-AG, was used to compare the activity of wt-MGLL (hMGLL 1-303) (SEQ ID NO: 3) to TEV cleaved mut-MGLL (hMGLL 1-303 L169S, L176S) (SEQ ID NO: 5).
The Michaelis-Menten parameters for the hydrolysis of 4-methylcoumarin butyrate (4MC-B) and coumarin arachidonate (C-A) substrate were determined using 4-5 nM of MGLL in 20 mM Pipes pH 7 and 150 mM NaCl at 37° C. The change in fluorescence due to substrate hydrolysis was monitored using excitation/emission wavelengths of 335/440 in a Safire II instrument from Tecan. The hyperbolic rates versus substrate concentration curves for the hydrolysis of 4MC-B were fit to the Michaelis-Menten equation using Excel.

[2] = Thermofluor thermal stability (melting transition) of MGLL; type: physicochemical
Source text: The Thermofluor® assay is a powerful tool to screen for small molecule inhibitors interacting with a protein's active site or allosteric site. The assay detects small changes in the intrinsic melting temperature of proteins based on binding of ligands. Compounds that interact preferentially with the native form of the protein will increase the Tm, the temperature at which half of the protein is unfolded (Pantoliano et al. 2001). The technique monitors changes in the fluorescent intensity of dyes such as 1-anilinonaphthalene-8-sulfonic acid (1,8-ANS). The fluorescent dyes are quenched in aqueous environments but increase in fluorescence on binding to the hydrophobic core of denatured proteins.
Thermofluor® assays were conducted to characterize wt-MGLL (hMGLL 1-303) (SEQ ID NO: 3) and mut-MGLL (hMGLL 1-303 L169S, L176S) and evaluate if the MGLL mutants could be used for high-throughput screening using Thermofluor®. Three microliters of protein at a concentration of 0.05 mg/ml in 50 mM Pipes pH 7, 200 mM NaCl, 100 μM 1,8-ANS, and 0.001% Tween was added to pre-dispensed compound plates. Wells were overlaid with silicone oil (1 μL, Fluka, type DC 200) to prevent evaporation. Final compound concentrations varied from 150 to 0.15 μM. Assay plates were heated at a rate of 1° C./min for all experiments over a temperature range sufficient to measure protein unfolding. Fluorescence was measured by continuous illumination with UV light (Hamamatsu LC6) supplied via fiber optic and filtered through a custom band-pass filter (380-400 nm; >60D cutoff). Fluorescence emission was detected by measuring light intensity using a CCD camera (Sensys, Roper Scientific) filtered to detect emission at 500±25 nm, resulting in simultaneous and independent readings of all 384 wells. One or more images were collected at each temperature, and the sum of the pixel intensity in a given area of the assay plate was recorded vs temperature, and fit to standard equations to yield the Tm.

[3] = Size exclusion chromatography of MGLL purified in the absence of detergent (aggregation/monomer); type: physicochemical
Experimental: A pilot purification of wt-MGLL (hMGLL 1-303) (SEQ ID NO: 3), performed in the complete absence of detergent, generated no protein (data not shown). A second purification of wt-MGLL (hMGLL 1-303) (SEQ ID NO: 3) was done with detergent in the lysis buffer only. Frozen cell pellets for wt-MGLL (hMGLL 1-303) (SEQ ID NO: 3) were thawed, resuspended, and lysed in Bugbuster® lysis buffer for 1 hour at 4° C. Bugbuster® lysis buffer is a proprietary lysis buffer from […] that contains detergent. The lysate was clarified by centrifugation at 40,000×g for 1 hr. No detergent was added at this point or during the rest of the purification. From this point forward, the purification protocol and buffers were the same as described below for mut-MGLL. An average of 2.2 mg of wt-MGLL (hMGLL 1-303) (SEQ ID NO: 3) per liter of cell culture was obtained.
Mutant MGLL (mut-MGLL) constructs were purified in the absence of detergent. Frozen cell pellets were thawed and resuspended in buffer A (50 mM Hepes buffer pH 7.5, 400 mM NaCl, 5% glycerol, 0.05% BME, 1× Complete EDTA-free protease inhibitor cocktail tablets (Roche)), dounce homogenized and mechanically lysed with a microfluidizer processor (Microfluidics). The extract was clarified by centrifugation at 40,000×g for 1 hr. The cleared lysate was loaded on a 1 ml His-Trap FF Crude column (GE-Healthcare) at 4° C. using the AktaXpress system. For larger preparations, a 5 ml His-Trap FF Crude column was used. The column was washed with 10-15 column volumes (CV) of buffer A containing 30 mM imidazole and mut-MGLL was eluted with 5 CV of 50 mM Hepes buffer pH 7.5, 400 mM NaCl, 5% glycerol, 0.05% BME, 400 mM imidazole. In most preparations, 30 mM imidazole was included in Buffer A from the beginning of the preparation to reduce non-specific binding on the His-Trap column. […] Fractions were analysed by SDS-PAGE. […] Purification yields were determined by Bradford assay using the protein assay kit from BioRad according to manufacturer's instruction with BSA as a standard (Bradford 1976).

Row | Molecule | Kcat [1] | Km [1] | quality of the melting transition [2] | Tm (midpoint of the melting transition) ([2]; 0.05 mg/ml protein, 1,8-ANS) | aggregation by size exclusion chromatography (in words) ([3]; detergent in the lysis buffer only) | aggregation ([3]; size exclusion, purified in the absence of detergent)
1 | B1 | 1.13 s⁻¹ | 162 µM | very poor transition | 58 °C | complete aggregation | 100%
2 | B2 | 0.85 s⁻¹ | 124 µM | – | – | – | –
3 | B3 | 0.5 s⁻¹ | 90 µM | – | – | – | –
4 | B4 | 0.783 s⁻¹ | 89 µM | – | – | – | –
5 | B5 | 0.45 s⁻¹ | 137 µM | – | – | – | –
6 | B6 | 0.633 s⁻¹ | 110 µM | – | – | – | –
7 | B7 | 0.5 s⁻¹ | 123 µM | – | – | – | –

— patent publication US8257698B2, “Protein engineering of monoacylglycerol lipase (MGLL)” (Janssen Pharmaceutica N.V., priority 2008, dated 2012)
